# Experimental data: patent US20220381770A1
# Key:
# [1] = molecular target: HCMV pp65495-503/HLA-A2-Fc (Human cytomegalovirus); assay: flow cytometry of pMHC-Fc-loaded α-Fc-based T-Plex beads stained with BB7.2
# [2] = molecular target: Survivin96-104/HLA-A2-Fc-STag; assay: as above
substance,measurement,setting,value
αHLA-A2 mAb (Clone BB7.2/BioLegend) of IgG2b isotype (antibody),fold MFI against pMHC-pCC-Fc-loaded SAv-based T-Plex beads,[1],4 fold
same,fold MFI against pMHC-pCC-Fc-loaded SAv-based T-Plex beads,[2],4 fold
